# The nanobody polyreactivity screen of Harvey et al. (2022)
# Assay: yeast display, Sf9 membrane polyspecificity reagent, FACS + sequencing; frameworks hold sequencing errors
# Summary of the method: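 After 36–48 hours of galactose induction, yeast (Saccharomyces cerevisiae BJ5465) displaying a synthetic nanobody library were stained at 4 °C for 1 hour with 10% biotinylated, detergent-solubilized Sf9 membrane reagent. Streptavidin microbeads enriched the stained cells before FACS sorting into low and high (top ~1%) gates on anti-HA and streptavidin fluorescence. Each clone's polyreactivity label reflects its gate of origin.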
row,Sequence,polyreactivity (PSR sort gate)
1,QVQIVESGGGLVQAGGSLRLSCAASGSTFYSYAMGWYRQAPGKERELVAAIDWSGDNTNYADSVKGRFTISRDNAKNTVYLQMKSLKPEDTAVYYCAAVYSYYRLYAYPAYYYWGQGTQVTVSS,low polyreactivity
2,QVQLVESGGGLVQAGGSLRLSCAASGRTSGFNTMGWYRQAPGKERELVAAISFSGGSTYYADSVKGRFTISRDNAKNTVYLQMNSLKPEDTAVYYCNALYRYLYRSGDYWGQGTQVTVSS,low polyreactivity
3,QVQLVESGGGLVQAGGSLRLSCAASGRTFRANAMEWYRQAPGKEREFVAVISLSGGGTYADSVKGRFTISRDNAKNTVYLQMNSLKPEDTAVYYCNRVPRRREYFHSNYLALFDYWGQGTQVTVSW,low polyreactivity
4,QVQLVESGGGLVQPGGSLRLSCAASGSIFSYNTMGWYRQAPGKERELVAAISGRGGSTNYADSVKGRFTISRDNAKNTVYLQMNSLKPEDTAVYYCAKETWVPYRNGFFPLKGDYWGQGTQVTVSS,low polyreactivity
5,QVQLVESGGGLVQAGGSLRLSCAASGSTFATYTMGWYRQAPGKERELVAAISVSGSRTYYADSVKGRFTISRDNAKNTVYLQMNSLKPEDTAVYYCNTLLRPRWSYDYWGQGTQVTVSS,high polyreactivity
6,QVQLVESGGGLVQAGGSLRLSCAASGSIFSQYAMGWYRQAPGTERDFVAAINWSGGRTRYADSVKGRFTISRDNAKNTVYLQMNSLKPEDTAVYYCAKVYSLYSYSGRYDYWGQGTQVTVSS,high polyreactivity
7,QVHLVESGGGLVQAGGSLRLSCAASGRIFSSNAMGWYRQAPGKERELVAAISWIVGRTYYADSVKGRFTISRDNAKNTVYLQMNRLKPEDTAVYYCAKGSYYGRKRGWGYYYWGQGTQVTVSS,high polyreactivity
8,QVQLVESGGGLVQAGGSLRLSCAASGRIFLKYTLGWYRQAPGKERELVAAISRGGSTYYADSVKGRFTISRDNAKNTVYLQMNSLKPEDSAVYYCAATSYRRTGYNYWGQGTQVTVSS,high polyreactivity
9,QVQLVESGGGLVQAGGSLRLSCAASGRTFDYYTMGWYRQAPGKERELVAAISRSSGRTYYADSVKGRFTISRDNAKNTVYLQMNSLKPEDTAVYYCAARYYLSVRYGYWGQGTQVTVSS,high polyreactivity
10,QVQLVESGGGLVQAGGSLRLSCAASGSTLISYAMGSYRQAPGKERELDAAITYNGGTTHYADSVKGRLTISRDNAKNSVYLQLKSLKPEDTAVYYCAKAQGHVRVSRGLQGGRYDYWGQGTQVTVSS,low polyreactivity
11,QVKLEESGGGLVQAGGSLRLTCAASGRIFYLYGMGWYRQATGKERELVAAIDRRGTRTYYADSVKGRFTISCDNAQTTFYLQMNSVKPEDTAVYYCAARFAAYRTYTSYDYWGQGTQVTVSS,high polyreactivity
12,QVQLVESGGGLVQAGGSLRLSCAASGRIFGIYAMRWYRQAPGKERELVAAISYSGGSTYYADSVKGRFTISRDNAKNTVYLQMNSLNPEDTAVYYCNADYYASYYPYYSIRLDYLGQGTQVTVSS,low polyreactivity
13,QVQLVESGGGLVQAGGSLRLSCAASGYTFVIYAMGSYRQAPGKERELVAAITTIGGRTYYADSVKGRFTISRDNAKNTVYLQMNSLKPEDTAVYYCAADIRSNRLYDGGYWGLGTQVTVSS,low polyreactivity
14,KVQVVESGGGVVQAGGTLRLSCAASGSIAGNAMGWYRQAPGKERELVAAITFRGSGTYYADSVKGRFTISRDNAKNTVYLQINSLKPEDTAVYYCNAYRRGLSGYGYWGQGTQVTVSS,high polyreactivity
15,QVQLVESGGGLVQAGGSLRLSCAASGSIYNRYAMGSYRQAPRQERELVAAITQSTDSTYYADSVKGRITISRDNAMITVYLQMNSLKPEDTAVYYCAAYLVYYRPYAYGYWGQGTQVTVSS,low polyreactivity
16,QVQLVESGGGLVQAGGSLRLSCAASGSIFRVYVMGWYRQAPGKERELVARIRYRSGRTNYADSVKGRFTISRDNAKNTVYLQMNSLKPEDTAVYYCSADVYWPTAGDYTQKRDYWGLGTQVTVSS,high polyreactivity
17,QVQLVESGGGLVQAGGSLRLSCAASGFTFDIYAMGWYRQAPGTERELVATISFTGDTTSYADSVKGRFTISRDNAKTTVYLQMNSLKPEDTAVYYCAADGSYPLSVGRENLHYAEFDYWGQGTQVTVSS,low polyreactivity
18,QVQLVESGGGLVQAGGSLRLSCAASGSTFWWTTMGWYRQAPGTERELVAAITTGGGTYYADSVKGRFTISRDNAKNTVYLQMNSLKPEDTAVYYCNADYDSQYHYLLRYDYWGQGTQVTVSS,low polyreactivity
19,QVQLVESGGGLVQAGGSLRLSCAASGFTFDWYAMGWYRPAPGTERELVAAISTRGTSTYYADSVKGRFTISRDNAKNTVYLQMNSLKPEDTAVYYCAKRSYHGGDYWGQGTQVTVSS,high polyreactivity
20,QVQLVESGGGLVQAGASLRLSCAASGRIFNIYALGWYRQAPGKERELVADITSGGTTYADSVKWRFTISRDNAKNTVYLQMNSLKPEDTAVYYCAAVYRYRNRRDYDYWGQGTQVTVSS,high polyreactivity
21,QVQLQESGGGLVQAGGSLRLSCAASGYISLAQTIGWYRQAPGTEREFVASIALGSSTYYTDSVKGSFTISRDNAKTTVYLQMNSLKPEDTAVYYCAARVGASYAHDYWGQGTQVTVSS,low polyreactivity
22,QVQLVESGGGLLQSGGSLRLSCAASGFIFRSYAMGWYRQAPGKEREFVASISSRGGTTYYADSVKGRFTISRDNAKKTVYLQMNRLKPEDTAVYYCAADYFRWAGWGYEYWGQGSQVTVSS,high polyreactivity

row,Sequence,polyreactivity (PSR sort gate)
1,QVQLLESGGGLVQAGGSLRLSCAASGFTFYLYTMGWYRQATGKERELVAAISRSGDRTYYADSVKGRFTISRDNAKNNVYLQMNSLKPEDTAVYYCAARSYRPTRGDYWGQGTQVTVST,high polyreactivity
2,QVQLVESGGGLVQAGGSLRISCAASGLIFGRYAMGWYRQAPGKERELVAAISSSGVRTYYADSVKGRFTISRDNAKNTVYLQMNSLKPEDTAVYYCAAAYWSSREDTVIKRYYWGQGTQVTVSS,high polyreactivity
3,QVQLVESGGGLVQAGGSLRLSCAASGRIFYGNAMGWYRQAPGKERELVATISSSGGRTTYADSVKGRFTISRDNAKNTVYLQMNSLKPEDTAVYYCADQGYWTGYDYWGQGTQVTVSS,high polyreactivity
4,QVQLVESGGGLVQAGGSLRLSCAASGITLYGYTMGWYRQAPGKERELVAGISRGGSTYYADSVKGRFTISRYNEKNTVFLQLNSLKPEDSEVYYCAAAGWYRGDYWGQGTQVTVSS,high polyreactivity
5,QVQLVESGGGLVQAGGSLRLSCAASGRIFLYNAMGWYRQAPGKERELVAAITSSGSSTYYADSVKGRFTISRDNAKNTVYLQMNSLKPEDTAVYYCNRYTRKTRRVDYWGQGTQVTVSS,high polyreactivity
6,QVQLVESGGGLVQAGGSLRLSCAASGSIFKSNGMGWNRQAPGKERELVAAITGSGGTTYYADSVKGRFTISRDYAKNTVYLQMNSLKPEDTAVYYCAAVNYYWGQGTQVTVSS,low polyreactivity
7,QVQLVESGAGLVQARGSLRLSCAASGFTISYYAMGWYRQAPVKERELVAAITSGGSTYYADYVKGRFTISRDNAKNTVYVQMNSLKPEDTAVYYCIADGWYYPTDDYWGQGSQVTVSS,low polyreactivity
8,QVQLVESGGGLVQAGGSLRLSCAASGSTFFSYAMGWYRQAPGKERELVAAISWIDDGTYYADSVKGRFTISRDNAKNTVYLQMNSLKPEDTAVYYCAATKFWYYGYDYWGQGTQVTVSS,low polyreactivity
9,QVQLVESGGGLVQAGGSLRLSCAASGRTFTYNTMGWYRQAPGKERELVAAISSSGGSTYYADSVKGRFTISRDNAKNSVYLQMNSLKPEDTAVYYCAKRYFSSSRYYYWGQGTQVTVSS,high polyreactivity
10,QVQLVESGGGLVQAGGSLRLSCAASGNTFYRYAMGWYRQAPGKERELVAAITWSGSRTYYADSVKGRFTISRDNAKNTVYLQMNSLKPEDTAVYYCAAPFWYVGPAMDYWGQGTQVTVSS,low polyreactivity
11,QVQLVESGGGLVQAGGSLRLSCAASGSTFVPYALGWYRQAPGKERELVAAITTSGGNTYYADSVKGRFTISRDNAKNTVYLQMNSLKPEDTAVYYCAADTFRRFDYWGQGTQVTVSS,low polyreactivity
12,QVQLVESGGGLVQAGGSLRLSCAASGIIFGRYTMGWSRQAPGKERELVAAITSSGITYYADSVKGRFTISRDNAKNTVYLQMNSLKPEDTAVYYCIADYSSPGYYWPYDYWGQGTQVTVSS,low polyreactivity
13,QVQLVESGGGLVQAGGSLRLSCAASGNILIGNVMGWYRPAPGKERELVAAITSGGDTYYADSVKGRFTITRDNAKNTVYLQMNSLKPEDTAVYYCAADRPGQPKYEYWGQGTQVTVSS,low polyreactivity
14,QVQLVESGGGLVQAGGSLRLSCAASGSIFYSNAMGWYRQAPGKERELVAAINWRGGSTYYADSVKGRFTISRDYAKNTVYLQMNSLKPEDTAVYYCNADSYDEIKYGYWGQGTQVTVSS,low polyreactivity
15,QFQLVESGGGLVQAGGSLRISCDASGRTFWYYTMGWYRKAPGKERELVASITYRGGSTYYADSVKGRFTISRDNAKNTVYLQMNSLKPEDTAVYYCNKPYFTASGDRFGYWGQGTQVTVSS,low polyreactivity
16,QVQLVESGGGLVQAGGSLRLSCAASGSTFYNYAMGWYRQAPGKERELVASITWNGGSTYYADSVKGRFTISRDNAKNTVYLQMNSLKPEDTAVYYCAADWTWTYPYDYWGQGTQVTVSS,low polyreactivity
17,QVQLVEAGGGLVQAGGSLRLSCAASGYTFGKNAMGWYRQAPGKERELVAAITYSGGSTYYADSVKGRFTISRDNAKNTVYLQMNSLKPEDTAVYYCAADNPSDVYDTWVYYWGQGTQVTVSS,high polyreactivity
18,QVQLVESGGGLVQAGGSLRLSCAASGFTFKENTIGRYRQAPGKEMELVAAMSWSGGGTYYADSVKGRFTISRDNGKNTVYLQMNSLKPEDTAVYYCAALQRRDHNGDYWGQGTQVTVSS,low polyreactivity
19,QVQLVESGGGLVQAGGSLRLSFAASGSIFLFNAMGWYRQAPGKERELVAAITSPTARTYYADSVKGRFTISRDNAKNTVYLQMNSLKPEDTAVYYCAARYRYAYGYGRGYSWGQGTQVTVSS,high polyreactivity
20,QVQLVESGGGLVQAGGSLRLSCAASGRTFGGNSMGWYRQAPGKERELVAAISGSGGSTYYADSVKGRFTISRDNAKNTVYLQMNSLKPEDTAVYYCAKASRKGWRYDSWGQGTQVTVSS,high polyreactivity
21,QVHLVESGGGLVQAGGSLRLSCAASGRTYGVNAMGRYRQAPGKEREFVAAISKRGGSTYYADSVKGRFTISRDNAKNTVYLQMNSLKPEDTAGYYCAADYTTHYWGQGTQVTVSS,high polyreactivity
